Data as given in patent publication US7994281 (EUROPEAN MOLECULAR BIOLOGY LABORATORY, dated 2011).
Positions count from the first letter of the chain named. In names and notes the source's numbering stands.

T1: DcR1 (TRAIL-R3) Fc, recombinant receptor (UniProt O14798 26-221, limits assumed)
T1 construct: not shown: Fc part of the Fc fusion
T1 sequence (looked up): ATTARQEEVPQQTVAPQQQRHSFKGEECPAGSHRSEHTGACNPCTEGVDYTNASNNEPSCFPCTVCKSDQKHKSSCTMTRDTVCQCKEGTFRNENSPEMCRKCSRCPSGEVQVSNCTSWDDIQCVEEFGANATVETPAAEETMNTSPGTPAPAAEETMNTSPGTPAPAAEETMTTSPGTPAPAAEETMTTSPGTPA

T2: murine RANK (receptor) (murine, UniProt O35305 31-214, limits assumed)
T2 construct: Control surface in the SPR screening
T2 sequence (looked up): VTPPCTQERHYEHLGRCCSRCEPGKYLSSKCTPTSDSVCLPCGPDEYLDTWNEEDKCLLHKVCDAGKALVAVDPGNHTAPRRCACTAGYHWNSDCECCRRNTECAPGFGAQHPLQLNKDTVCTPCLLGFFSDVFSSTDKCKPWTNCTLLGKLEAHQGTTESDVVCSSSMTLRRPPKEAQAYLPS

B1: TRAIL mutant D269H (ligand)
chain: VRERGPQRVAAHITGTRGRSNTLSSPNSKNEKALGRKINSWESSRSGHSFLSNLHLRNGELVIHEKGFYYIYSQTYFRFQEEIKENTKNDKQMVQYIYKYTSYPDPILLMKSARNSCWSKDAEYGLYSIYQGGIFELKENDRIFVSVTNEHLIDMHHEASFFGAFLVG
B2: TRAIL mutant D269HM1 (D269H combined with M1: E194I, I196S) (ligand)
chain: B1 chain with E81I, I83S
B3: TRAIL mutant D269K (ligand)
chain: B1 chain with H156K
B4: TRAIL mutant D269HE195R (ligand)
chain: B1 chain with E82R
B5: TRAIL mutant D269R (ligand)
chain: B1 chain with H156R
B6: TRAIL mutant E195R (ligand)
chain: B1 chain with E82R, H156D
B7: TRAIL mutant C1 (M1 + M3: E194I, I196S, S225A) (ligand)
chain: B1 chain with E81I, I83S, S112A, H156D
notes: Combination of M1 and M3 on soluble TRAIL 114-281
B8: TRAIL mutant M3 (S225A) (ligand)
chain: B1 chain with S112A, H156D
notes: Stability mutant built on soluble TRAIL 114-281
B9: TRAIL mutant G160M (ligand)
chain: B1 chain with G47M, H156D
B10: TRAIL mutant M1 (E194I, I196S) (ligand)
chain: B1 chain with E81I, I83S, H156D
notes: as for B8
B11: TRAIL mutant M2 (D203I, Q205M, Y237F) (ligand)
chain: B1 chain with D90I, Q92M, Y124F, H156D
notes: as for B8
B12: TRAIL mutant D269HT214R (ligand)
chain: B1 chain with T101R
notes: also called T214R-D269H
B13: TRAIL mutant R191ED267R (ligand)
chain: B1 chain with R78E, D154R, H156D
B14: TRAIL mutant D218R (ligand)
chain: B1 chain with D105R, H156D
B15: TRAIL mutant R130E (ligand)
chain: B1 chain with R17E, H156D
B16: TRAIL mutant E155M (ligand)
chain: B1 chain with E42M, H156D
B17: TRAIL mutant D218Y (ligand)
chain: B1 chain with D105Y, H156D
B18: TRAIL mutant I220M (ligand)
chain: B1 chain with I107M, H156D
B19: TRAIL mutant D218F (ligand)
chain: B1 chain with D105F, H156D
B20: TRAIL mutant G160K (ligand)
chain: B1 chain with G47K, H156D
B21: TRAIL mutant G131R (ligand)
chain: B1 chain with G18R, H156D
B22: TRAIL mutant R149H (ligand)
chain: B1 chain with R36H, H156D
B23: TRAIL mutant I220H (ligand)
chain: B1 chain with I107H, H156D
B24: TRAIL mutant R149D (ligand)
chain: B1 chain with R36D, H156D

biological target: T1, DcR1 (TRAIL-R3) Fc, recombinant receptor; assay: SPR, Biacore 3000, 37 C, receptor Fc on CM5 chip
Method: (§1) Binding experiments were performed using a surface plasmon resonance-based biosensor Biacore 3000 (Biacore AB, Uppsala, Sweden), at 37° C. Recombinant receptors were ordered from R&D systems (R&D systems, Minneapolis, Minn., USA). […] Receptors were coated at a level of ~600-800 RU. […] Between injections the receptor/sensor surface was regenerated using 30 µl of 3 M sodium acetate pH 5.2.

Row | fold decrease in binding compared to wild-type TRAIL [fold] | Binder
1 | ~10 | B1

biological target: T3, DR4 (TRAIL-R1) Fc, recombinant receptor from R&D Systems (UniProt O00220 24-239, limits assumed); assay: SPR, receptor Fc immobilised, ligand 0.1 to 250 nM
T3 construct: also called soluble TRAIL-R1 Fc; not shown: Fc part of the bought Fc fusion
T3 sequence (O00220 24-239 limits assumed): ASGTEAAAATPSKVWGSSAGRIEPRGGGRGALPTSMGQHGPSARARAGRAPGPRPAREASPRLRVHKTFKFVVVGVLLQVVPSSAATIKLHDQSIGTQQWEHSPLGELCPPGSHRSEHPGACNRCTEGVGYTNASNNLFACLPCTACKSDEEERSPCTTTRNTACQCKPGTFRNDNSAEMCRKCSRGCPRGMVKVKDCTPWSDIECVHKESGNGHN
Method: as §1
(§2) Combinations between the stability variants and selectivity variants described above can be made, giving variants with enhanced stability and altered selectivity/specificity. […] Mutants were tested for receptor binding and biological activity as described in Examples 1, 2 and 3.

Row | fold reduction in binding relative to wild-type TRAIL [fold] | Binder
2 | > 8 | B2

biological target: T4, DR5 (TRAIL-R2) Fc, recombinant receptor from R&D Systems (UniProt O14763 54-182, limits assumed); assay: SPR, receptor Fc immobilised, ligand 0.1 to 250 nM
T4 construct: also called soluble TRAIL-R2 Fc; immobilized TRAIL-R2 Fc; not shown: Fc part of the bought Fc fusion
T4 sequence (O14763 54-182 limits assumed): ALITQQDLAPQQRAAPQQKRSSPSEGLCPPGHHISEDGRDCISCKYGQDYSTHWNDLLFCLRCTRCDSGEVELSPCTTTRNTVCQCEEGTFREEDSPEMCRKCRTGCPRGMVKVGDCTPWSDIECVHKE
Method: as §1, §2

Row | fold improvement in binding relative to wild-type TRAIL [fold] | Binder
3 | > 8 | B2

biological target: T3, DR4 (TRAIL-R1) Fc, recombinant receptor …; assay: SPR, Biacore 3000, 37 C, receptor Fc on CM5 chip, ligand 0.1-250 nM
Method: as §1

Row | fold reduction in binding relative to wild-type TRAIL [fold] | Binder
4 | > 15 | B3
5 | > 15 | B4
6 | > 15 | B1
7 | > 15 | B5

biological target: T4, DR5 (TRAIL-R2) Fc, recombinant receptor …; assay: as above
Method: as §1

Row | fold improvement in binding relative to wild-type TRAIL [fold] | Binder
8 | > 10 | B3
9 | > 10 | B4
10 | > 10 | B1
11 | > 10 | B5

biological target: T3, DR4 (TRAIL-R1) Fc, recombinant receptor …; assay: SPR (Biacore), E. coli extracts diluted 1:50 over immobilised receptor
Method: (§3) Control extracts of BL21 (DE3) culture without an over-expression plasmid and of a BL21 (DE3) culture with plasmid over-expressing SH3 domain were also injected.

Row | binding result | Binder
12 | binds | B6

biological target: T3, DR4 (TRAIL-R1) Fc, recombinant receptor …; assay: SPR, Biacore 3000, 25 C, receptor amine-coupled to CM5 chip, ligand 2 ug/ml
Method: (§4) Binding experiments were performed using a surface plasmon resonance-based biosensor Biacore 3000 (Biacore AB, Uppsala, Sweden), at 25° C. Recombinant receptors were ordered from R&D systems (R&D systems, Minneapolis, Minn., USA). Immobilization of the receptors on the sensor surface of a Biacore CM5 sensor chip was performed following a standard amine coupling procedure according to the manufacturer's instructions. A reference surface was generated simultaneously under the same conditions but without receptor injection and used as a blank to correct for instrument and buffer artifacts. […] Binding of ligands to the receptors was monitored in real-time. The receptor/sensor surface was regenerated using 3 M sodium acetate pH 5.2 injections.

Row | binding result | Binder
13 | binds | B7
14 | binds | B8

biological target: T3, DR4 (TRAIL-R1) Fc, recombinant receptor …; assay: SPR, Biacore 3000, 37 C, receptor on chip, 1:1 Langmuir global fit, preliminary apparent Kd
Method: (§5) Binding of the purified mutants was assessed in real time using surface plasmon resonance on a Biacore 3000 with a sensor chip as described above. […] Measurements performed at 37° C. to allow increased $koff$ and dissociation was monitored for 20 min. Measured $kon$ and $koff$ rates were used to calculate apparent K_d values for the mutants for the respective receptors. A global fit procedure was used and a 1:1 Langmuir interaction model.

Row | Kd [nM] | Binder
15 | 0.4 | B9
16 | 0.6 | B1

biological target: T4, DR5 (TRAIL-R2) Fc, recombinant receptor …; assay: as above
Method: as §5

Row | Kd [nM] | Binder
17 | 0.5 | B9
18 | < 0.4 | B1

biological target: T3, DR4 (TRAIL-R1) Fc, recombinant receptor …; assay: SPR (Biacore 3000, 25 C): ligand at 2 ug/ml injected over receptor amine-coupled to a CM5 chip
Method: as §4

Row | binding result | Binder
19 | binds | B10
20 | binds | B11

biological target: T3, DR4 (TRAIL-R1) Fc, recombinant receptor …; assay: SPR (Biacore 3000, 37 C): purified ligand at 60 nM over immobilised receptor Fc

Row | binding result | Binder
21 | no binding (tested: 60 nM) | B12
22 | no binding (tested: 60 nM) | B13

biological target: T3, DR4 (TRAIL-R1) Fc, recombinant receptor …; assay: SPR (Biacore): clarified E. coli extract diluted 1:50 injected over immobilised DR4, DR5, DcR1 and RANK; bars are the response as a fraction of the DR5 response
Method: as §3

Row | binding result | Binder
23 | binds | B14
24 | binds | B15
25 | binds | B16
26 | binds | B17
27 | binds | B18
28 | binds | B19
29 | binds | B20
30 | binds | B21
31 | binds | B22
32 | binds | B23
33 | binds | B24

biological target: T2, murine RANK (receptor); assay: SPR (Biacore): clarified E. coli extract diluted 1:50 injected over immobilised DR4, DR5, DcR1 and RANK; bars are the response as a fraction of the DR4 response
Method: as §3

Row | binding result | Binder
34 | no binding | B14
35 | no binding | B15
36 | no binding | B17
37 | no binding | B9
38 | no binding | B20
39 | no binding | B21
